B1: Alpha-parvin (Homo sapiens), Q9NVD7 (parent)
chain: MATSPQKSPSVPKSPTPKSPPSRKKDDSFLGKLGGTLARRKKAKEVSELQEEGMNAINLPLSPIPFELDPEDTMLEENEVRTMVDPNSRSDPKLQELMKVLIDWINDVLVGERIIVKDLAEDLYDGQVLQKLFEKLESEKLNVAEVTQSEIAQKQKLQTVLEKINETLKLPPRSIKWNVDSVHAKSLVAILHLLVALSQYFRAPIRLPDHVSIQVVVVQKREGILQSRQIQEEITGNTEALSGRHERDAFDTLFDHAPDKLNVVKKTLITFVNKHLNKLNLEVTELETQFADGVYLVLLMGLLEGYFVPLHSFFLTPDSFEQKVLNVSFAFELMQDGGLEKPKPRPEDIVNCDLKSTLRVLYNLFTKYRNVE
partner: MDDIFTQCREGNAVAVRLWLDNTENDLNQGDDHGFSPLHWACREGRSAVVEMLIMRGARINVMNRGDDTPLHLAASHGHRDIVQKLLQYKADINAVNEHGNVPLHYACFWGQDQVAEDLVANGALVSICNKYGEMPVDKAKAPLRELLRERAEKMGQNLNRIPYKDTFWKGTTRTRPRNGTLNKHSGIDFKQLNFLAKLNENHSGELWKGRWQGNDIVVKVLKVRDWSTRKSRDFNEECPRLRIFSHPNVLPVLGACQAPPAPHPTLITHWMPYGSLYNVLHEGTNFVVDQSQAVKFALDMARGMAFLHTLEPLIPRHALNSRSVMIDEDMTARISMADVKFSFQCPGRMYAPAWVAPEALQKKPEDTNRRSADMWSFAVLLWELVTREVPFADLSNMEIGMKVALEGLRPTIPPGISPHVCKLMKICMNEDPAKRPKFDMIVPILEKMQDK

This assay covers variants of B1. Conditions: with ilk_mouse Ilk.
MATSPQKSPSVPKSPTPKSPPSRKKDDSFLGKLGGTLARRKKAKEVSELQEEGMNAINLPLSPIPFELDPEDTMLEENEVRTMVDPNSRSDPKLQELMKVLIDWINDVLVGERIIVKDLAEDLYDGQVLQKLFEKLESEKLNVAEVTQSEIAQKQKLQTVLEKINETLKLPPRSIKWNVDSVHAKSLVAILHLLVALSQYFRAPIRLPDHVSIQVVVVQKREGILQSRQIQEEITGNTEALSGRHERDAFDTLFDHAPDKLNVVKKTLITDVNKHLNKLNLEVTELETQFADGVYLVLLMGLLEGYFVPLHSFFLTPDSFEQKVLNVSFAFELMQDGGLEKPKPRPEDIVNCDLKSTLRVLYNLFTKYRNVE [F271D]: the “effect of a mutation on the interaction” value is on record as “disrupting interaction strength”.

The values above are taken from IntAct's records for PubMed 11331308.
